# Measurements reported in article PMC9765476, “Malic Enzyme, not Malate Dehydrogenase, Mainly Oxidizes Malate That Originates from the Tricarboxylic Acid Cycle in Cyanobacteria” (mBio, 2022).
# Legend:
# Experiment in all cases: purified protein
# [1] = substrate: O=C(O)C[C@H](O)C(=O)O; conditions: malate oxidation
# [2] = substrate: NC(=O)c1ccc[n+]([C@@H]2O[C@H](COP(=O)(O)OP(=O)(O)OC[C@H]3O[C@@H](n4cnc5c(N)ncnc54)[C@H](O)[C@@H]3O)[C@@H](O)[C@H]2O)c1; type: biochemical, Synechocystis sp. PCC 6803; conditions: 4 mM malate, pH 8.0, 50°C, malate oxidation, varied: cofactor
# [3] = substrate: O=C(O)CC(=O)C(=O)O; type: biochemical, Synechocystis sp. PCC 6803; conditions: 0.1 mM NADH, pH 8.0, 50°C, reductive reaction
# [4] = substrate: NC(=O)C1=CN([C@@H]2O[C@H](COP(=O)(O)OP(=O)(O)OC[C@H]3O[C@@H](n4cnc5c(N)ncnc54)[C@H](O)[C@@H]3O)[C@@H](O)[C@H]2O)C=CC1; type: biochemical, Synechocystis sp. PCC 6803; conditions: 0.5 mM oxaloacetate, pH 8.0, 50°C, reductive reaction, varied: cofactor
# [5] = substrate: NC(=O)c1ccc[n+]([C@@H]2O[C@H](COP(=O)(O)OP(=O)(O)OC[C@H]3O[C@@H](n4cnc5c(N)ncnc54)[C@H](O)[C@@H]3O)[C@@H](O)[C@H]2O)c1; type: biochemical, Nostoc sp. PCC 7120 = FACHB-418; conditions: 5 mM malate, pH 9.0, 50°C, malate oxidation, varied: cofactor
# [6] = substrate: O=C(O)CC(=O)C(=O)O; type: biochemical, Nostoc sp. PCC 7120 = FACHB-418; conditions: 0.1 mM NADH, pH 9.0, 50°C, reductive reaction
# [7] = substrate: NC(=O)C1=CN([C@@H]2O[C@H](COP(=O)(O)OP(=O)(O)OC[C@H]3O[C@@H](n4cnc5c(N)ncnc54)[C@H](O)[C@@H]3O)[C@@H](O)[C@H]2O)C=CC1; type: biochemical, Nostoc sp. PCC 7120 = FACHB-418; conditions: 0.1 mM oxaloacetate, pH 9.0, 50°C, reductive reaction, varied: cofactor
# [8] = substrate: NC(=O)c1ccc[n+]([C@@H]2O[C@H](COP(=O)(O)OP(=O)(O)OC[C@H]3O[C@@H](n4cnc5c(N)ncnc54)[C@H](O)[C@@H]3O)[C@@H](O)[C@H]2O)c1; type: biochemical, Limnospira platensis; conditions: 1 mM malate, pH 8.5, 50°C, malate oxidation, varied: cofactor
# [9] = substrate: O=C(O)CC(=O)C(=O)O; type: biochemical, Limnospira platensis; conditions: 0.1 mM NADH, pH 8.5, 50°C, reductive reaction
# [10] = substrate: NC(=O)C1=CN([C@@H]2O[C@H](COP(=O)(O)OP(=O)(O)OC[C@H]3O[C@@H](n4cnc5c(N)ncnc54)[C@H](O)[C@@H]3O)[C@@H](O)[C@H]2O)C=CC1; type: biochemical, Limnospira platensis; conditions: 0.5 mM oxaloacetate, pH 8.5, 50°C, reductive reaction, varied: cofactor
# [11] = substrate: NC(=O)C1=CN([C@@H]2O[C@H](COP(=O)(O)OP(=O)(O)OC[C@H]3O[C@@H](n4cnc5c(N)ncnc54)[C@H](OP(=O)(O)O)[C@@H]3O)[C@@H](O)[C@H]2O)C=CC1; type: biochemical, Nostoc sp. PCC 7120 = FACHB-418; conditions: 30 mM pyruvate, 100 mM NH4Cl, 0.1 mM MnCl2, 50 mM KHCO3, pH 8.8, 52°C, reductive reaction, varied: cofactor
# [12] = substrate: NC(=O)c1ccc[n+]([C@@H]2O[C@H](COP(=O)(O)OP(=O)(O)OC[C@H]3O[C@@H](n4cnc5c(N)ncnc54)[C@H](OP(=O)(O)O)[C@@H]3O)[C@@H](O)[C@H]2O)c1; type: biochemical, Nostoc sp. PCC 7120 = FACHB-418; conditions: 3 mM malate, 100 mM NH4Cl, 0.1 mM MnCl2, pH 8.8, 52°C, malate oxidation, varied: cofactor
# [13] = substrate: CC(=O)C(=O)O; type: biochemical, Nostoc sp. PCC 7120 = FACHB-418; conditions: 0.1 mM NADPH, 100 mM NH4Cl, 0.1 mM MnCl2, 50 mM KHCO3, pH 8.8, 52°C, reductive reaction
# [14] = substrate: NC(=O)c1ccc[n+]([C@@H]2O[C@H](COP(=O)(O)OP(=O)(O)OC[C@H]3O[C@@H](n4cnc5c(N)ncnc54)[C@H](OP(=O)(O)O)[C@@H]3O)[C@@H](O)[C@H]2O)c1; type: biochemical, Synechocystis sp. PCC 6803; conditions: 3 mM malate, 100 mM NH4Cl, 0.5 mM MnCl2, pH 8.3, 50°C, malate oxidation, varied: cofactor
# [15] = 8 mM NAD+, pH 8.0, 50°C, pH 8.0, 50.0 °C
# [16] = 8 mM NAD+, pH 9.0, 50°C, pH 9.0, 50.0 °C
# [17] = 8 mM NAD+, pH 8.5, 50°C, pH 8.5, 50.0 °C
# [18] = 0.5 mM NADP+, 100 mM NH4Cl, 0.1 mM MnCl2, pH 8.8, 52°C, pH 8.8, 52.0 °C
# [19] = 0.5 mM NADP+, 100 mM NH4Cl, 0.5 mM MnCl2, pH 8.3, 50°C, pH 8.3, 50.0 °C
protein,measurement,setting,value
"SyMDH (Synechocystis sp. PCC 6803 substr. Kazusa) (protein, full length, His-tagged (pQE80L), E. coli BL21(DE3), synthesized gene) MNILEYAPIACQSWQVTVVGAGNVGRTLAQRLVQQNVANVVLLDIVPGLPQGIALDLMAAQSVEEYDSKIIGTNEYEATAGSDVVVITAGLPRRPGMSRDDLLGKNANIVAQGAREALRYSPNAILIVVTNPLDVMTYLAWKVTGLPSQRVMGMAGVLDSARLKAFIAMKLGACPSDINTLVLGGHGDLMLPLPRYCTVSGVPITELIPPQTIEELVERTRNGGAEIAALLQTGTAYYAPASSAAVMVESILRNQSRILPAATYLDGAYGLKDIFLGVPCRLGCRGVEDILEVQLTPEEKAALHLSAEAVRLNIDVALAMVSDG",K0.5,[1]; [15],1.61 ± 0.37 mM
same,kcat,[1]; [15],1 s⁻¹
same,kcat/Km,[1]; [15],640 M⁻¹ s⁻¹
same,K0.5,[2],1.34 ± 0.30 mM
same,kcat,[2],1.8 ± 0.1 s⁻¹
same,kcat/Km,[2],1400 ± 200 M⁻¹ s⁻¹
same,K0.5,[3],0.11 ± 0.002 mM
same,kcat,[3],4 ± 0.04 s⁻¹
same,kcat/Km,[3],36000 ± 1000 M⁻¹ s⁻¹
same,K0.5,[4],0.018 ± 0.002 mM
same,kcat,[4],6.6 ± 0.5 s⁻¹
same,kcat/Km,[4],364000 ± 19000 M⁻¹ s⁻¹
"NoMDH (Nostoc sp. PCC 7120 = FACHB-418) (protein, full length, GST-tagged (pGEX6P-1), tag kept, E. coli BL21(DE3), 10°C expression) MFSSPDSPILHCLPRVAIIGAGRVGSTLAQRIAEKNLADVVLLDIVEGIPQGLALDLLEARGIELHNRQIIGTNNYADTSGSQIVVITAGFPRKPGMSRDDLLRTNAKIVIEAAKQAIAYSPYAIFIVVTNPLDVMTYLAWEATGLPRNRIMGMAGVLDSARFETFIALELGVLPADVKAMVLGSHGDLMVPLSRYATVNGIPITQLLDAVTIERLVERTRNGGAEIVELMQTGGAFFAPASATSLMVESILLNQSRLLPVSIYLQGEYDLKDVVIGVPCRLGLNGIESVIELNLSDSEREALHISAKSVQKNIERWRSLQNS",K0.5,[5],8.45 ± 1.95 mM
same,kcat,[5],6.3 ± 0.5 s⁻¹
same,kcat/Km,[5],770 ± 100 M⁻¹ s⁻¹
same,K0.5,[6],0.026 ± 0.002 mM
same,kcat,[6],1.1 ± 0.03 s⁻¹
same,kcat/Km,[6],42000 ± 2000 M⁻¹ s⁻¹
same,K0.5,[7],0.0093 ± 0.0001 mM
same,kcat,[7],1.3 ± 0.1 s⁻¹
same,kcat/Km,[7],142000 ± 8000 M⁻¹ s⁻¹
same,K0.5,[1]; [16],1.88 ± 0.56 mM
same,kcat,[1]; [16],3.5 s⁻¹
same,kcat/Km,[1]; [16],2000 M⁻¹ s⁻¹
"ArMDH (Limnospira platensis NIES-46) (protein, full length, GST-tagged (pGEX6P-1), tag kept, E. coli BL21(DE3)) MQMASSMFFPPSCHPTQVSIIGAGKVGGTLAQRIAESNVAHVVLLDVVEGLPQGVALDLMQAGSVEGHDRKILGTNDYADTAGSDVVVITAGRPRTPGMNRNDLIETNAPIVARAVTNAIASSPNAVIIIVTNPLDVMTYIAWQVSQIEPFRIMGMAGVLDSARFQAFIATELNVSVADVNATVMGSHGDLMVPLPRYSTVNGIPITELMDTETINRLIARTRNGGAEIVGLLKTGGAYYAPASSVRTMVESILLNRRRLLPTSAYLKGEYGMKDIFLGVPCWLGCRGVEAVLELNLTDNEREALNSCAQSVREGIEKADAVLAATAAV",K0.5,[1]; [17],0.034 ± 0.002 mM
same,kcat,[1]; [17],0.25 s⁻¹
same,kcat/Km,[1]; [17],7300 M⁻¹ s⁻¹
same,K0.5,[8],0.30 ± 0.02 mM
same,kcat,[8],0.5 ± 0.01 s⁻¹
same,kcat/Km,[8],1700 ± 100 M⁻¹ s⁻¹
same,K0.5,[9],0.041 ± 0.001 mM
same,kcat,[9],1.4 ± 0.03 s⁻¹
same,kcat/Km,[9],34000 ± 400 M⁻¹ s⁻¹
same,K0.5,[10],0.0085 ± 0.0025 mM
same,kcat,[10],1.7 ± 0.1 s⁻¹
same,kcat/Km,[10],214000 ± 50000 M⁻¹ s⁻¹
"NoME (Nostoc sp. PCC 7120 = FACHB-418) (protein, full length, GST-tagged (pGEX6P-1), tag kept, E. coli BL21(DE3)) MADLTPNSSFSVTLRLQIPNRVGMLASITQAIASSGGNLGQIDLIEQTRQVSLRDLTVDAASTEHAETIVQAVKAIPDIKLVSVYDRTFNLHRGGKISITSRIPLKSVSDLAMAYTPGVGRVCTAIAQDPSQVYNLTIKQNTVAIVTDGSAVLGLGNLGPHAALPVMEGKAMLFKEFAGLDAFPICLATQDTEEIIQAVKNIAPVFGGVNLEDIAAPRCFEIEKRLRDELDIPVFHDDQHGTAIVTLAALFNSLKLVQKSLADIRIVINGAGAAGVAIARLLRKAGAEKIWMCDSKGIISTTRTDLNEEKQEFAVKAQGTLAGAVQGADVFIGVSAPGVLTPEMVKSMAKDAIVFAMANPIPEIQPELISKDVAVIATGRSDYPNQINNVLAFPGVFRGALDCRAQTITTTMYLEAASAIASLVNPSDLSREHIIPSVFDERVVTAVAAAVQRAAREEGIARG",K0.5,[11],0.0074 ± 0.001 mM
same,kcat,[11],0.85 ± 0.03 s⁻¹
same,kcat/Km,[11],116000 ± 10000 M⁻¹ s⁻¹
same,K0.5,[12],0.014 ± 0.004 mM
same,kcat,[12],33.4 ± 3.2 s⁻¹
same,kcat/Km,[12],2.53e+06 ± 436000 M⁻¹ s⁻¹
same,K0.5,[13],6.55 ± 0.38 mM
same,kcat,[13],0.79 ± 0.03 s⁻¹
same,kcat/Km,[13],120 ± 3 M⁻¹ s⁻¹
same,K0.5,[1]; [18],0.41 ± 0.02 mM
same,kcat,[1]; [18],30.3 s⁻¹
same,kcat/Km,[1]; [18],75000 M⁻¹ s⁻¹
"SyME (Synechocystis sp. PCC 6803 substr. Kazusa) (protein, full length, His-tagged (pQE80L), E. coli BL21(DE3), synthesized gene) MVSLTPNPSYSVSLLLELPNHAGTLASVTQAIADAGGSFGQISLIESNLKLTRREIAVDASSSEHAEKIIGAVKALDNVKLLKVSDRTFDLHRQGKISVVSRIPLTSQSDLAMAYTPGVGRICRAIAEDPEKVYSLTIKSNTVAVVTDGSAVLGLGNLGPEAALPVMEGKAMLFKEFAQLDAFPICLDTQDTEEIIRTVKAIAPVFGGVNLEDIAAPRCFEIEARLKKELNIPVFHDDQHGTAIVTLAALLNALKFVGKAMAAVRIVINGAGAAGLAIAELLKESGATDIWICDSKGIVGKHRTDLNSKKQSFAVDAEGTLADAMAGADVFLGVSAPGVVTKEMVQSMAKDPIVFAMANPIPEIQPELIQEDAAVIATGRSDYPNQINNVLAFPGVFRGAIDCRASIITTTMCIEAAKAIASLVHSNTLDSEHIIPSVFDNRVATTVASAVQLAARNEGVAGQ",K0.5,[1]; [19],0.46 ± 0.06 mM
same,kcat,[1]; [19],77.2 s⁻¹
same,kcat/Km,[1]; [19],169000 M⁻¹ s⁻¹
same,K0.5,[14],0.015 ± 0.001 mM
same,kcat,[14],55.7 ± 3.3 s⁻¹
same,kcat/Km,[14],3.689e+06 ± 23000 M⁻¹ s⁻¹
